Molecular target: FBF-1/CSR-1 heterodimer (GST-FBF-1 with His6-CSR-1(MID-PIWI)) (C. elegans) (UniProt Q9N5M6)
Assay: pull-down

stoichiometry N: 1
Substance: Recombinant EFT-3 (natural protein)

From PMC3293257
